Results as given in patent US20080214462.

Biological target: factor X (FX) (UniProt P00742)
Sequence of UniProt P00742 (P00742 whole entry, looked up): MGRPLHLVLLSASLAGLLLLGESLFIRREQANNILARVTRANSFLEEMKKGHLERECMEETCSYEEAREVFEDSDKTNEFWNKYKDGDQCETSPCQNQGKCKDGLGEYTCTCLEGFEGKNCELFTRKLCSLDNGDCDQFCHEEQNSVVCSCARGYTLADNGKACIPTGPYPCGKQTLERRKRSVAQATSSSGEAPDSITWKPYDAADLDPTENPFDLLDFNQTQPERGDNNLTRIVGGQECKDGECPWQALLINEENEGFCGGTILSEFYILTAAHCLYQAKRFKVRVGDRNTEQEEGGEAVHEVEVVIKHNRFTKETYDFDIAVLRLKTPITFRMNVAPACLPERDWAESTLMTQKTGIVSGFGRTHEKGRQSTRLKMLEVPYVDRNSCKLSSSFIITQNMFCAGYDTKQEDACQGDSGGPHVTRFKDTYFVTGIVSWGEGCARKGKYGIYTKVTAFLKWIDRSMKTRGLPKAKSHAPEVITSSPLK

With activated plasma derived FIX (pdFIXa) the aPTT in FIX-depleted plasma: pdFIXa equivalent activity given for 0.5 µg/mL of FIXa protein was 1.1 µg/mL.
